Columns and labels:
Assay in all cases: pull-down
His-tagged STX8 (1-210) = target: T1, His-tagged STX8 (1-210) (human, UniProt Q9UNK0 1-210)
T1 sequence: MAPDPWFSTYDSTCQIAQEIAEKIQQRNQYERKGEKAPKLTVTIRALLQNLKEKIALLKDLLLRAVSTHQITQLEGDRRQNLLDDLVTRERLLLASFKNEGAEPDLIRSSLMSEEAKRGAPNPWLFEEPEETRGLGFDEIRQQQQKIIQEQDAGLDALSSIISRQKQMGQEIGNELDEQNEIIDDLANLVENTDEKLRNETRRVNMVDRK

His-tagged VTI1B (1-204) = target: T2, His-tagged VTI1B (1-204) (human, UniProt Q9UEU0 1-204)
T2 sequence: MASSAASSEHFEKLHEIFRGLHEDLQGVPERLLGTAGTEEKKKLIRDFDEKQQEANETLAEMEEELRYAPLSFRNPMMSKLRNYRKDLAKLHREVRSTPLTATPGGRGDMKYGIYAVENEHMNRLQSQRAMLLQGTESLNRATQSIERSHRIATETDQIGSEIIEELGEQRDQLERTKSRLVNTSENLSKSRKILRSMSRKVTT

His-tagged STX7 (1-236) = target: T3, His-tagged STX7 (1-236) (human, UniProt O15400 1-236)
T3 sequence: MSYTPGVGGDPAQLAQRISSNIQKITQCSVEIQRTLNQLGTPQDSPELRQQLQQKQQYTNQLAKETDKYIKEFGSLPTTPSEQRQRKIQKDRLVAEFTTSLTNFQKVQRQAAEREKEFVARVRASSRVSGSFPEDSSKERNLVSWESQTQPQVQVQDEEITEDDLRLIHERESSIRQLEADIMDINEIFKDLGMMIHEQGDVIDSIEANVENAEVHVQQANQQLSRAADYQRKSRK

Measured: binding result

B1: GST-tagged VAMP4 (1-115) (domain or fragment)
chain: MPPKFKRHLNDDDVTGSVKSERRNLLEDDSDEEEDFFLRGPSGPRFGPRNDKIKHVQNQVDEVIDVMQENITKVIERGERLDELQDKSESLSDNATAFSNRSKQLRRQMWWRGCK
binds: all assays above

Reference: paper PMC9441717 (The Journal of Cell Biology, 2022)
